Experimental findings from patent US20220048967A1 (published 2022) are described below.

In one experiment the target is human GLP-1 receptor (human, UniProt P43220 24-463). Put plainly: cell-based or functional assay.
Experiment [1] addresses Pro-Link-tagged Human GLP-1R (human, UniProt P43220 24-463). Nature of the experiment: cell-based or functional assay.

Changes are numbered by the printed parent chain. Numbered stars: 1 amine (or outer) side, 2 acyl side, 3 side chain; on linkers, the order of the positions; unused ones are H or OH. Square brackets hold non-standard residues; d marks the D form. Side chains are listed from the residue outwards. Ends that are not written are not given here. * marks the point of attachment. C20 diacid = O=C(O)CCCCCCCCCCCCCCCCCCC(=O)*; γGlu = O=C(O)[C@H](CCC(=O)[*:2])N[*:1]; αMeL = CC(C)C[C@](C)(N)C(=O)O; Dab = NCC[C@H](N)C(=O)O; Dap = NC[C@H](N)C(=O)O; AEEA = NCCOCCOCC(=O)O; Aib = CC(C)(N)C(=O)O

B1: Example 350 (peptide)
peptide: [dY][Aib]EGTFTSDYSI[αMeL]LD[Dab]K([AEEA-AEEA-γGlu-C20 diacid])AQ[Aib]EFIEYLIAGGPSSGAPPPS-NH2
modifications: N-terminus assumed
SMILES: CC[C@H](C)[C@H](NC(=O)[C@H](CC(C)C)NC(=O)[C@H](Cc1ccc(O)cc1)NC(=O)[C@H](CCC(=O)O)NC(=O)[C@@H](NC(=O)[C@H](Cc1ccccc1)NC(=O)[C@H](CCC(=O)O)NC(=O)C(C)(C)NC(=O)[C@H](CCC(N)=O)NC(=O)[C@H](C)NC(=O)[C@H](CCCCNC(=O)COCCOCCNC(=O)COCCOCCNC(=O)CC[C@H](NC(=O)CCCCCCCCCCCCCCCCCCC(=O)O)C(=O)O)NC(=O)[C@H](CCN)NC(=O)[C@H](CC(=O)O)NC(=O)[C@H](CC(C)C)NC(=O)[C@](C)(CC(C)C)NC(=O)[C@@H](NC(=O)[C@H](CO)NC(=O)[C@H](Cc1ccc(O)cc1)NC(=O)[C@H](CC(=O)O)NC(=O)[C@H](CO)NC(=O)[C@@H](NC(=O)[C@H](Cc1ccccc1)NC(=O)[C@@H](NC(=O)CNC(=O)[C@H](CCC(=O)O)NC(=O)C(C)(C)NC(=O)[C@H](N)Cc1ccc(O)cc1)[C@@H](C)O)[C@@H](C)O)[C@@H](C)CC)[C@@H](C)CC)C(=O)N[C@@H](C)C(=O)NCC(=O)NCC(=O)N1CCC[C@H]1C(=O)N[C@@H](CO)C(=O)N[C@@H](CO)C(=O)NCC(=O)N[C@@H](C)C(=O)N1CCC[C@H]1C(=O)N1CCC[C@H]1C(=O)N1CCC[C@H]1C(=O)N[C@@H](CO)C(N)=O
Take B1: in the experiment with human GLP-1 receptor, the “hGLP1R GTPgS % Top” value turned out to be 64.1% and the “hGLP1R GTPgS Rel EC50” value was determined as 0.589 nM. In addition, in experiment [1], the “hGLP1R B-Arrestin2 % Top” value was found to be 21.8% and the “hGLP1R B-Arrestin2 Rel EC50” value stood at 10.8 nM.

B2: Example 351 (peptide)
peptide: [dY][Aib]EGTFTSDYSI[αMeL]LD[Dap]K([AEEA-AEEA-γGlu-C20 diacid])AQ[Aib]EFIEYLIAGGPSSGAPPPS-NH2
modifications: N-terminus assumed
SMILES: CC[C@H](C)[C@H](NC(=O)[C@H](CC(C)C)NC(=O)[C@H](Cc1ccc(O)cc1)NC(=O)[C@H](CCC(=O)O)NC(=O)[C@@H](NC(=O)[C@H](Cc1ccccc1)NC(=O)[C@H](CCC(=O)O)NC(=O)C(C)(C)NC(=O)[C@H](CCC(N)=O)NC(=O)[C@H](C)NC(=O)[C@H](CCCCNC(=O)COCCOCCNC(=O)COCCOCCNC(=O)CC[C@H](NC(=O)CCCCCCCCCCCCCCCCCCC(=O)O)C(=O)O)NC(=O)[C@H](CN)NC(=O)[C@H](CC(=O)O)NC(=O)[C@H](CC(C)C)NC(=O)[C@](C)(CC(C)C)NC(=O)[C@@H](NC(=O)[C@H](CO)NC(=O)[C@H](Cc1ccc(O)cc1)NC(=O)[C@H](CC(=O)O)NC(=O)[C@H](CO)NC(=O)[C@@H](NC(=O)[C@H](Cc1ccccc1)NC(=O)[C@@H](NC(=O)CNC(=O)[C@H](CCC(=O)O)NC(=O)C(C)(C)NC(=O)[C@H](N)Cc1ccc(O)cc1)[C@@H](C)O)[C@@H](C)O)[C@@H](C)CC)[C@@H](C)CC)C(=O)N[C@@H](C)C(=O)NCC(=O)NCC(=O)N1CCC[C@H]1C(=O)N[C@@H](CO)C(=O)N[C@@H](CO)C(=O)NCC(=O)N[C@@H](C)C(=O)N1CCC[C@H]1C(=O)N1CCC[C@H]1C(=O)N1CCC[C@H]1C(=O)N[C@@H](CO)C(N)=O
Take B2: in the experiment with human GLP-1 receptor, the “hGLP1R GTPgS % Top” value worked out at 66.5% and the “hGLP1R GTPgS Rel EC50” value came out at 0.563 nM. In experiment [1], the “hGLP1R B-Arrestin2 % Top” value is 23.5% and the “hGLP1R B-Arrestin2 Rel EC50” value came out at 19.6 nM.

B3: Example 349 (peptide)
peptide: XXEGTFTSDYSIXLDXKAQXEFIEYLIAGGPSSGAPPPS
modifications: D-Tyr1, Aib2, αMeL13, Orn16, K17 conjugated to (2-[2-(2-Amino-ethoxy)-ethoxy]-acetyl)2-(γ-Glu)-CO-(CH2)18-CO2H, Aib20, C-terminal amide (NH2)
Consider B3, for which, in the experiment with human GLP-1 receptor, the “hGLP1R GTPgS % Top” value is 64.5% and the “hGLP1R GTPgS Rel EC50” value stood at 0.464 nM. Further, in experiment [1], the “hGLP1R B-Arrestin2 % Top” value worked out at 18.4% and the “hGLP1R B-Arrestin2 Rel EC50” value came out at 15.1 nM.

B4: Example 353 (peptide)
peptide: B3 peptide with X16K, E24X, A28E
modifications: D-Tyr1, Aib2, αMeL13, K17 conjugated to (2-[2-(2-Amino-ethoxy)-ethoxy]-acetyl)2-(γ-Glu)-CO-(CH2)18-CO2H, Aib20, D-Glu24, C-terminal amide (NH2)
With B4, in the experiment with human GLP-1 receptor, the “hGLP1R GTPgS % Top” value worked out at 63.1% and the “hGLP1R GTPgS Rel EC50” value amounted to 1.96 nM. Also, in experiment [1], the “hGLP1R B-Arrestin2 % Top” value was determined as 23% and the “hGLP1R B-Arrestin2 Rel EC50” value was 559 nM.

B5: Example 352 (peptide)
peptide: B3 peptide with X16K, E21A, E24X
modifications: D-Tyr1, Aib2, αMeL13, K17 conjugated to (2-[2-(2-Amino-ethoxy)-ethoxy]-acetyl)2-(γ-Glu)-CO-(CH2)18-CO2H, Aib20, D-Glu24, C-terminal amide (NH2)
For B5, in the experiment with human GLP-1 receptor, the “hGLP1R GTPgS % Top” value was found to be 63.5% and the “hGLP1R GTPgS Rel EC50” value came to 0.552 nM. Moreover, in experiment [1], the “hGLP1R B-Arrestin2 % Top” value was found to be 17.4% and the “hGLP1R B-Arrestin2 Rel EC50” value turned out to be 4.21 nM.

B6: Example 293 (peptide)
peptide: B3 peptide with Y25X
modifications: D-Tyr1, Aib2, αMeL13, Orn16, K17 conjugated to (2-[2-(2-Amino-ethoxy)-ethoxy]-acetyl)2-(γ-Glu)-CO-(CH2)18-CO2H, Aib20, αMeY25, C-terminal amide (NH2)
Consider B6, for which, in the experiment with human GLP-1 receptor, the “hGLP1R GTPgS % Top” value was 70.6% and the “hGLP1R GTPgS Rel EC50” value came out at 0.368 nM. For the same molecule, in experiment [1], the “hGLP1R B-Arrestin2 % Top” value amounted to 29.5% and the “hGLP1R B-Arrestin2 Rel EC50” value amounted to 7.19 nM.

B7: Example 291 (peptide)
peptide: B3 peptide with E21A, E24X
modifications: D-Tyr1, Aib2, αMeL13, Orn16, K17 conjugated to (2-[2-(2-Amino-ethoxy)-ethoxy]-acetyl)2-(γ-Glu)-CO-(CH2)18-CO2H, Aib20, D-Glu24, C-terminal amide (NH2)
For the molecule B7, in the experiment with human GLP-1 receptor, the “hGLP1R GTPgS % Top” value was 65% and the “hGLP1R GTPgS Rel EC50” value came to 0.466 nM. Moreover, in experiment [1], the “hGLP1R B-Arrestin2 Rel EC50” value is more than 10000 nM.

B8: Example 366 (peptide)
peptide: B3 peptide with E21A, Y25X
modifications: D-Tyr1, Aib2, αMeL13, Orn16, K17 conjugated to (2-[2-(2-Amino-ethoxy)-ethoxy]-acetyl)2-(γ-Glu)-CO-(CH2)18-CO2H, Aib20, αMeY25, C-terminal amide (NH2)
B8: in the experiment with human GLP-1 receptor, the “hGLP1R GTPgS % Top” value is 67.6% and the “hGLP1R GTPgS Rel EC50” value amounted to 0.409 nM. In addition, in experiment [1], the “hGLP1R B-Arrestin2 % Top” value turned out to be 21.2% and the “hGLP1R B-Arrestin2 Rel EC50” value worked out at 5.57 nM.

B9: Example 365 (peptide)
peptide: B3 peptide with X16K, E21A, Y25X
modifications: D-Tyr1, Aib2, αMeL13, K17 conjugated to (2-[2-(2-Amino-ethoxy)-ethoxy]-acetyl)2-(γ-Glu)-CO-(CH2)18-CO2H, Aib20, αMeY25, C-terminal amide (NH2)
As to B9, in the experiment with human GLP-1 receptor, the “hGLP1R GTPgS % Top” value was 66.9% and the “hGLP1R GTPgS Rel EC50” value was 0.464 nM. Further, in experiment [1], the “hGLP1R B-Arrestin2 % Top” value came out at 20.8% and the “hGLP1R B-Arrestin2 Rel EC50” value was 7.03 nM.

B10: Example 354 (peptide)
peptide: B3 peptide with E24X
modifications: D-Tyr1, Aib2, αMeL13, Orn16, K17 conjugated to (2-[2-(2-Amino-ethoxy)-ethoxy]-acetyl)2-(γ-Glu)-CO-(CH2)18-CO2H, Aib20, D-Glu24, C-terminal amide (NH2)
B10: in the experiment with human GLP-1 receptor, the “hGLP1R GTPgS % Top” value was 53.3% and the “hGLP1R GTPgS Rel EC50” value stood at 0.967 nM. Besides, in experiment [1], the “hGLP1R B-Arrestin2 % Top” value stood at 22.7% and the “hGLP1R B-Arrestin2 Rel EC50” value is 255 nM.

B11: Example 355 (peptide)
peptide: B3 peptide with E24X, A28E
modifications: D-Tyr1, Aib2, αMeL13, Orn16, K17 conjugated to (2-[2-(2-Amino-ethoxy)-ethoxy]-acetyl)2-(γ-Glu)-CO-(CH2)18-CO2H, Aib20, D-Glu24, C-terminal amide (NH2)
Turning to B11, in the experiment with human GLP-1 receptor, the “hGLP1R GTPgS % Top” value was 50.6% and the “hGLP1R GTPgS Rel EC50” value is 1.76 nM. In addition, in experiment [1], the “hGLP1R B-Arrestin2 % Top” value stood at 18.3% and the “hGLP1R B-Arrestin2 Rel EC50” value worked out at 363 nM.

B12: Example 359 (peptide)
peptide: B3 peptide with I23V
modifications: D-Tyr1, Aib2, αMeL13, Orn16, K17 conjugated to (2-[2-(2-Amino-ethoxy)-ethoxy]-acetyl)2-(γ-Glu)-CO-(CH2)18-CO2H, Aib20, C-terminal amide (NH2)
For the molecule B12, in the experiment with human GLP-1 receptor, the “hGLP1R GTPgS % Top” value was determined as 69.7% and the “hGLP1R GTPgS Rel EC50” value was 0.496 nM. For the same molecule, in experiment [1], the “hGLP1R B-Arrestin2 % Top” value was 28.4% and the “hGLP1R B-Arrestin2 Rel EC50” value was determined as 84.1 nM.

B13: Example 358 (peptide)
peptide: B3 peptide with E21A, I23V
modifications: D-Tyr1, Aib2, αMeL13, Orn16, K17 conjugated to (2-[2-(2-Amino-ethoxy)-ethoxy]-acetyl)2-(γ-Glu)-CO-(CH2)18-CO2H, Aib20, C-terminal amide (NH2)
For the molecule B13, in the experiment with human GLP-1 receptor, the “hGLP1R GTPgS % Top” value stood at 72.3% and the “hGLP1R GTPgS Rel EC50” value was determined as 0.414 nM. Also, in experiment [1], the “hGLP1R B-Arrestin2 % Top” value stood at 21.4% and the “hGLP1R B-Arrestin2 Rel EC50” value stood at 9.38 nM.

B14: Example 363 (peptide)
peptide: B3 peptide with E21A, E24X
modifications: D-Tyr1, Aib2, αMeL13, Orn16, K17 conjugated to (2-[2-(2-Amino-ethoxy)-ethoxy]-acetyl)2-(γ-Glu)-CO-(CH2)16-CO2H, Aib20, D-Glu24, C-terminal amide (NH2)
On to B14, for which, in the experiment with human GLP-1 receptor, the “hGLP1R GTPgS % Top” value is 69.6% and the “hGLP1R GTPgS Rel EC50” value came out at 0.943 nM. Besides, in experiment [1], the “hGLP1R B-Arrestin2 % Top” value was 22.1% and the “hGLP1R B-Arrestin2 Rel EC50” value came out at 135 nM.

B15: Example 292 (peptide)
peptide: B3 peptide with X16K, Y25X
modifications: D-Tyr1, Aib2, αMeL13, K17 conjugated to (2-[2-(2-Amino-ethoxy)-ethoxy]-acetyl)2-(γ-Glu)-CO-(CH2)18-CO2H, Aib20, αMeY25, C-terminal amide (NH2)
B15: in the experiment with human GLP-1 receptor, the “hGLP1R GTPgS % Top” value was 71.5% and the “hGLP1R GTPgS Rel EC50” value was 0.429 nM. In experiment [1], the “hGLP1R B-Arrestin2 % Top” value was 29% and the “hGLP1R B-Arrestin2 Rel EC50” value stood at 7.74 nM.
